Data published in patent publication US20080044407A1.

Molecular target: HPV 16 E786-93 epitope […] (X aminobutyric acid) presented by HLA-A2.1 (human papilloma virus (HPV) 16; human)

“freshly isolated HLA-A2 positive CD8+ (CTLs) and CD4+ (HTLs) T cells (cells without a defined receptor)” gave an IFN γ Elispot, frequency of spots (250,000 cells per well) of 0.02%.
